{"source": "patent US20140031293A1", "biological_target": "purified human fibrinogen (human) (UniProt P02671)", "sequence (P02671 20-629 limits assumed, chain 1 of 3)": "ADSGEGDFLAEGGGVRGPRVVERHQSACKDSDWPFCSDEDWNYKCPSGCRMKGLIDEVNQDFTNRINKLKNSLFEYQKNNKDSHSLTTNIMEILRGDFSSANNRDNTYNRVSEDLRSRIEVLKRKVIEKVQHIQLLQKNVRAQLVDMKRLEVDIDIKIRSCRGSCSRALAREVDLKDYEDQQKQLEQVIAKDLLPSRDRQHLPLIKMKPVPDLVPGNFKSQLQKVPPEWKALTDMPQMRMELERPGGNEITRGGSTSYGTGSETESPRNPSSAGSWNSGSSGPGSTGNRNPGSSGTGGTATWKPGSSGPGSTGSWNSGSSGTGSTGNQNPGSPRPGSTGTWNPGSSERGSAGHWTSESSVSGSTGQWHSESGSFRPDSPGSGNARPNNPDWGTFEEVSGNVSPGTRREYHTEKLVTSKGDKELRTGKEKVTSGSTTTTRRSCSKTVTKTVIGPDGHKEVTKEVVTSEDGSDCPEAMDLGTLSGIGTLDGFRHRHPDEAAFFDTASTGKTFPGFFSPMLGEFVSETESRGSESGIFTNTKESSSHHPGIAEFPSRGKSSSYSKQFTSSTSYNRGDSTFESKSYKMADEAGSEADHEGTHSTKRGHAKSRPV", "sequence (P02675 31-491 limits assumed, chain 2 of 3, further chain)": "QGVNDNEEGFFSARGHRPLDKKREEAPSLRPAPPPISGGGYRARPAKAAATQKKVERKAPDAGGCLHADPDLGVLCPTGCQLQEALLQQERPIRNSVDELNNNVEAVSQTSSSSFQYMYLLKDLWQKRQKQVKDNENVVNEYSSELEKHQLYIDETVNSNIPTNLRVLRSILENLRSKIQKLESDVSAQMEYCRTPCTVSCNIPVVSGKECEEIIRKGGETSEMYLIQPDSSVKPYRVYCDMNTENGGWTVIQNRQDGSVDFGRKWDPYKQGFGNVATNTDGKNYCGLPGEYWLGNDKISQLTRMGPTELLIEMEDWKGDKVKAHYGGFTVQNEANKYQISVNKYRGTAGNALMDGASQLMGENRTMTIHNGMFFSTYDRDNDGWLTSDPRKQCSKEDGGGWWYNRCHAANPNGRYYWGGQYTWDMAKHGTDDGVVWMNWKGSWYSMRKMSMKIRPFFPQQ", "sequence (P02679 other isoform, or with tags, fused parts or gaps limits assumed, chain 3 of 3, further chain)": "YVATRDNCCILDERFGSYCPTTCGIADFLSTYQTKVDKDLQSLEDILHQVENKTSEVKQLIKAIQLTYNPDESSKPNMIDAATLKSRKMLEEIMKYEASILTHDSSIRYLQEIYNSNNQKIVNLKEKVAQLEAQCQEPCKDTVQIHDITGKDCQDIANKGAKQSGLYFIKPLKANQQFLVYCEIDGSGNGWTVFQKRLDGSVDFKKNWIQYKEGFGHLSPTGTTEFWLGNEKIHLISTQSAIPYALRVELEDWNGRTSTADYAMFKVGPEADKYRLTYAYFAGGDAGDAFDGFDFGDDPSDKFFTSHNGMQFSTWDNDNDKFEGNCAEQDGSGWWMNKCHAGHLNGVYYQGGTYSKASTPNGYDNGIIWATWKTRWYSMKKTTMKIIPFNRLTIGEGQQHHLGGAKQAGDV", "experiment": "cell-based or functional assay", "data": [{"substance": "PeproStat: fibrinogen-binding peptides of sequence GPRPG (GPRPG-PEG12-maleimide) conjugated to human serum albumin thiolated with 2-iminothiolane (from UniProt P02768 25-609)", "values": [{"measurement": "Clotting activity (clot formation, Sigma Amelung KC4 coagulometer; 30 uL sample at 0.5 mg/ml added to 100 uL fibrinogen at 3 mg/ml)", "result": "< 6", "unit": "s"}]}]}
